The target in this test is VE-cadherin (Human CD-144, cadherin-5) (human) (UniProt P33151). Briefly: ELISA; 0.01 µM VE-cadherin or control BSA coated on Linbro plate wells in HBSC overnight at 4°C, blocked with 1% BSA in DMEM; MBP fusions added for 1 hr; detected with anti-MBP antibody, OD655; VE-cadherin signal minus BSA and plastic binding.
UniProt P33151, sequence (P33151 48-599): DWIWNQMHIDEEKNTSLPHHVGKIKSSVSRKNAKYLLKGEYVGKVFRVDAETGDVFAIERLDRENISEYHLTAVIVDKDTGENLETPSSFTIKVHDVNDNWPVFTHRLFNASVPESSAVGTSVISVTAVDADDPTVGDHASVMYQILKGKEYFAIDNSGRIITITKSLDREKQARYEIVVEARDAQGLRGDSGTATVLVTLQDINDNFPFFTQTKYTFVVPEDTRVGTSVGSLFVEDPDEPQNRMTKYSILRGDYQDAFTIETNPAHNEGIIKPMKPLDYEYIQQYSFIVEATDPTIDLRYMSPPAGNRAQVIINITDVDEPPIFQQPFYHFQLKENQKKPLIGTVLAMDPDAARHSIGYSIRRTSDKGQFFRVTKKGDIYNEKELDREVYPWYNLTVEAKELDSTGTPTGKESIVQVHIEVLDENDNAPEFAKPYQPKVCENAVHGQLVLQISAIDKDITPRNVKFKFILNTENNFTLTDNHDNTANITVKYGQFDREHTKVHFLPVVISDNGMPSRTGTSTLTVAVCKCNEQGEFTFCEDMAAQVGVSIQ

The Kd is the concentration at which binding is half-saturated. The substance “MBP fusion of L. interrogans candidate adhesin LIC11574 (natural protein)” showed a dissociation constant (Kd) of 7.6 nM.

“MBP fusion of L. interrogans candidate adhesin LIC13411 (natural protein)” yielded a Kd of 0.4 nM.

The record behind these values is publication PMC4183468.
